Assay results published in patent US20230279137A1 (EVOTEC INTERNATIONAL, published 2023).
Each block holds one binder with its values, some of them ahead of it.

Legend:
Test in all cases: cell-based or functional assay
human CD40 = human CD40 (human, UniProt P25942 21-277)
[1] = target: T1, human IFNγ receptor on HEK-Blue IFN-γ cells (human, UniProt P15260 18-489; P38484 22-337)
T1 sequence (looked up) 1: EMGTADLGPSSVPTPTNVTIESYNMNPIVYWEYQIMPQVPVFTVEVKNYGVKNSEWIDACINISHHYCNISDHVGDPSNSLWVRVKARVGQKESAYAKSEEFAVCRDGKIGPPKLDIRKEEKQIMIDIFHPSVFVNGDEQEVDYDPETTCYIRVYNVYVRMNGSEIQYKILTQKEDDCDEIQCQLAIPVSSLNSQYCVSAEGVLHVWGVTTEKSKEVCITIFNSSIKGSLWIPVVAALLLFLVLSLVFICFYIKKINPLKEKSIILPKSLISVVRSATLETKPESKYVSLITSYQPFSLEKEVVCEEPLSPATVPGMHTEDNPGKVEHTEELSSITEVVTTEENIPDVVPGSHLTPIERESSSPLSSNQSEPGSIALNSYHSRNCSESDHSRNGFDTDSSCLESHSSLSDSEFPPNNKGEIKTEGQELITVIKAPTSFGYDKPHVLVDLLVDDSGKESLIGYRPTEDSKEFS
T1 sequence (looked up) 2: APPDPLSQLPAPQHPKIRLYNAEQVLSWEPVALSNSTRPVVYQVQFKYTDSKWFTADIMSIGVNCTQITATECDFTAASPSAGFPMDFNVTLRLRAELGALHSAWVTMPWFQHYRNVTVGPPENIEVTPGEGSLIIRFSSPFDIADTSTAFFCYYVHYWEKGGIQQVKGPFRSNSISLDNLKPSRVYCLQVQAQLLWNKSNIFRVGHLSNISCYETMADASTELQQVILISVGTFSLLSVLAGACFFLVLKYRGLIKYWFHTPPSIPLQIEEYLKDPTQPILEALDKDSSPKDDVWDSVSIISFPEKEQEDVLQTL

[2] = target: T1, human IFNγ receptor on HEK-Blue IFN-γ …; remark: listed apart in the source
[3] = target: T2, human IFNλ receptor on HEK-Blue IFN-λ cells (human, UniProt Q8IU57 21-520; Q08334 20-325)
T2 sequence (looked up) 1: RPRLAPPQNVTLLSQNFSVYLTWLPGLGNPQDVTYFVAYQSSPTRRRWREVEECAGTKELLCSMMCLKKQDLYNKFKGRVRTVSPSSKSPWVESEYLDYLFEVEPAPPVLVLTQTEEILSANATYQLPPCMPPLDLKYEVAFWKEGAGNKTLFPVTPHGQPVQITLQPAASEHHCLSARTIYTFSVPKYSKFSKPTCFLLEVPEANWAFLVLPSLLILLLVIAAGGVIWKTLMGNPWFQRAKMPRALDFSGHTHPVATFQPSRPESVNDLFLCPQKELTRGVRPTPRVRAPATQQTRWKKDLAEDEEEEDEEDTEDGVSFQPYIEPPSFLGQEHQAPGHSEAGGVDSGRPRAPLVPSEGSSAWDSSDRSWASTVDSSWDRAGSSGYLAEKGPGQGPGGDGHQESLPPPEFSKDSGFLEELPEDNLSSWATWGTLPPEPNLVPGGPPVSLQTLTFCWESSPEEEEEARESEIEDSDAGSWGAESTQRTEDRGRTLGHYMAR
T2 sequence (looked up) 2: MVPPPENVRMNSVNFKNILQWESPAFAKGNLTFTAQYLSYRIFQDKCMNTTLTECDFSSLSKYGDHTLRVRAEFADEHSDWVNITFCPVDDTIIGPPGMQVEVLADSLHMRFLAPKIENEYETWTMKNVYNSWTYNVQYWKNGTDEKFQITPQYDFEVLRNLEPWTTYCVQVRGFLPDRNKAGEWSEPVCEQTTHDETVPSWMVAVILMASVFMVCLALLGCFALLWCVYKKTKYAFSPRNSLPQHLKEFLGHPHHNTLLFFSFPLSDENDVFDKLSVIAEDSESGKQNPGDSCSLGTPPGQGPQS

[4] = target: T3, human type I IFN receptor on HEK-Blue IFN-α/β cells (human, UniProt P17181 28-557; P48551 27-515)
T3 sequence (looked up) 1: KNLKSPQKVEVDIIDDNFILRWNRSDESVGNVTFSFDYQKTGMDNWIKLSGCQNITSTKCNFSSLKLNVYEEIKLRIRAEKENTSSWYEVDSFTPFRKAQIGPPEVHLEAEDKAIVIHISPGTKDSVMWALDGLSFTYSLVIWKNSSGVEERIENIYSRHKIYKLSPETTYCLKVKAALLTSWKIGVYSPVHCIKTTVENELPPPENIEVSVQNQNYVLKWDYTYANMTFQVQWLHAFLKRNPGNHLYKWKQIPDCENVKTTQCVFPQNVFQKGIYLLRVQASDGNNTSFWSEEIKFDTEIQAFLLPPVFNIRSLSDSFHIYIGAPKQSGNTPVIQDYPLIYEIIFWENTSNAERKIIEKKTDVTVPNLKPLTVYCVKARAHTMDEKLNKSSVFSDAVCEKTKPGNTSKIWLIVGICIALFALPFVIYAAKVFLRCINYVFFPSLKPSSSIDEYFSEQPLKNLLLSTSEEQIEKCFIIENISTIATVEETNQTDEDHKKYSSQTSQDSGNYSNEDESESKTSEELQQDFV
T3 sequence (looked up) 2: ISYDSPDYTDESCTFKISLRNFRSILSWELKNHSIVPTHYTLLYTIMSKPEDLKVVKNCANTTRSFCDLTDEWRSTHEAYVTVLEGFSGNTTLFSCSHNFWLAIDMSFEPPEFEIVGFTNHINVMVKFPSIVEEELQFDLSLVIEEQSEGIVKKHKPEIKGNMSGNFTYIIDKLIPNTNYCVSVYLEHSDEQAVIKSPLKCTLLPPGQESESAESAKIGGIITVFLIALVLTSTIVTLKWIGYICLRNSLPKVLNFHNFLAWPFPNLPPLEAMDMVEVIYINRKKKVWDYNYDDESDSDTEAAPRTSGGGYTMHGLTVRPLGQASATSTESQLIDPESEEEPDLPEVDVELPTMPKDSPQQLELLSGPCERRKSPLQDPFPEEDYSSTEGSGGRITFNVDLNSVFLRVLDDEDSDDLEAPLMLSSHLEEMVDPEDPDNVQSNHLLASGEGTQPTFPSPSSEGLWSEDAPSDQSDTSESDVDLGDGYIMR

human CD40, sequence (P25942 21-277): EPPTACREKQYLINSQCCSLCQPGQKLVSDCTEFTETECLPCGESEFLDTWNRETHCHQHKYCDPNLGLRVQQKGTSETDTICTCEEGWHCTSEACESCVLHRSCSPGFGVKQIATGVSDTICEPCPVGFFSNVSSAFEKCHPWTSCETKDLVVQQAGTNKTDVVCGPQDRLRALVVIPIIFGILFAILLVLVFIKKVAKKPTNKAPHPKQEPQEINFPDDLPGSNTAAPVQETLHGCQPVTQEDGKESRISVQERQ

B2: IFA44 (antibody, human IgG2, kappa)
light: DIQMTQSPSSVSASVGDRVTITCRASQGIYSWLAWYQQKPGKAPNLLIYTASTLQSGVPSRFSGSGSGTDFTLTISSLQPEDFATYYCQQANIFPLTFGGGTKVEIKRTVAAPSVFIFPPSDEQLKSGTASVVCLLNNFYPREAKVQWKVDNALQSGNSQESVTEQDSKDSTYSLSSTLTLSKADYEKHKVYACEVTHQGLSSPVTKSFNRGECGGGGSGGGGSGGGGSGGGGSVPVARLHGALPDARGCHIAQFKSLSPQELQAFKRAKDALEESLLLKDCRCHSRLFPRTWDLRQLQVRERPMALEAELALTLKVLEATADTDPALVDVLDQPLHTLHHILSQFRACIQPQPTAGPRTRGRLHHWLYRLQEAPKKESPGCLEASVTFNLFRLLTRDLNCVASGDLCV
heavy: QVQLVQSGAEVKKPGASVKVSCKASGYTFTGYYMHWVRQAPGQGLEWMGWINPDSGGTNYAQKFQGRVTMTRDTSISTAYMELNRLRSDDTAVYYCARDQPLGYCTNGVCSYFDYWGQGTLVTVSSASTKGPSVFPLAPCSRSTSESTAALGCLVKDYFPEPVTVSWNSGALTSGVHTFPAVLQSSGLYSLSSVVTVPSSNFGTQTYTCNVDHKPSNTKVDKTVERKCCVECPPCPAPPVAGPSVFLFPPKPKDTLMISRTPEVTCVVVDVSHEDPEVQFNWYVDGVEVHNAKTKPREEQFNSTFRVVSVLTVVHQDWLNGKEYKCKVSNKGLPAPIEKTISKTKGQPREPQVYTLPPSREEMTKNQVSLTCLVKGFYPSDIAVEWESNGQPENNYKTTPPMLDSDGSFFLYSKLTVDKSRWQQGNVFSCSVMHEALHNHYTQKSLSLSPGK
IFNλ EC50 (ng/mL), reporter in HEK-Blue IFNλ cells [3]: 0.153 ng/mL | CD40 EC50 (ng/mL), NFκB-SEAP reporter in HEK-Blue CD40L cells (human CD40): 41.4 ng/mL

B3: IFA45 (antibody, human IgG2, kappa)
heavy: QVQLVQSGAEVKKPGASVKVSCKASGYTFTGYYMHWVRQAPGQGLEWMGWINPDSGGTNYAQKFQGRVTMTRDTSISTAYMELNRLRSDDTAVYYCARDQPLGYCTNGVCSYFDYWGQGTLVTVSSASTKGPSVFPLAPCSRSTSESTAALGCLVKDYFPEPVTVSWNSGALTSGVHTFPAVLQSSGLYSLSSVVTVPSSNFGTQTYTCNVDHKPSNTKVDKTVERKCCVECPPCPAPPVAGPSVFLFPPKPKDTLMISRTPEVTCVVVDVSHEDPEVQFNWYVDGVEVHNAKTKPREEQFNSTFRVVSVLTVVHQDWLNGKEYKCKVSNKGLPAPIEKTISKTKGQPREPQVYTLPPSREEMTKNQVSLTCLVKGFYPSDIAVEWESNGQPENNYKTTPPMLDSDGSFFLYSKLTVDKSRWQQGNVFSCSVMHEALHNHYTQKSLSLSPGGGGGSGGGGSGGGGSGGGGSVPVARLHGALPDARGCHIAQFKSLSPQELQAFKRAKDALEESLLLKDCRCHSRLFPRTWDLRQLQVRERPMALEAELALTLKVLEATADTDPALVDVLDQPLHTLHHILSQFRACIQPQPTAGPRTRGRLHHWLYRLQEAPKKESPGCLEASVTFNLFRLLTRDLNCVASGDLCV
light: DIQMTQSPSSVSASVGDRVTITCRASQGIYSWLAWYQQKPGKAPNLLIYTASTLQSGVPSRFSGSGSGTDFTLTISSLQPEDFATYYCQQANIFPLTFGGGTKVEIKRTVAAPSVFIFPPSDEQLKSGTASVVCLLNNFYPREAKVQWKVDNALQSGNSQESVTEQDSKDSTYSLSSTLTLSKADYEKHKVYACEVTHQGLSSPVTKSFNRGEC
IFNλ EC50 (ng/mL), reporter in HEK-Blue IFNλ cells [3]: < 0.001 ng/mL | CD40 EC50 (ng/mL), NFκB-SEAP reporter in HEK-Blue CD40L cells (human CD40): 25.8 ng/mL

Other lines, results leading:

CD40 EC50 (ng/mL), NFκB-SEAP reporter in HEK-Blue CD40L cells (human CD40): 50.8 ng/mL | IFNγ EC50 (ng/mL), reporter in HEK-Blue IFNγ cells [1]: < 0.001 ng/mL | IFNγ activity EC50, reporter in HEK-Blue IFNγ cells [2]: < 0.01 ng/mL
B1: IFA43 (antibody, human IgG2, kappa)
heavy: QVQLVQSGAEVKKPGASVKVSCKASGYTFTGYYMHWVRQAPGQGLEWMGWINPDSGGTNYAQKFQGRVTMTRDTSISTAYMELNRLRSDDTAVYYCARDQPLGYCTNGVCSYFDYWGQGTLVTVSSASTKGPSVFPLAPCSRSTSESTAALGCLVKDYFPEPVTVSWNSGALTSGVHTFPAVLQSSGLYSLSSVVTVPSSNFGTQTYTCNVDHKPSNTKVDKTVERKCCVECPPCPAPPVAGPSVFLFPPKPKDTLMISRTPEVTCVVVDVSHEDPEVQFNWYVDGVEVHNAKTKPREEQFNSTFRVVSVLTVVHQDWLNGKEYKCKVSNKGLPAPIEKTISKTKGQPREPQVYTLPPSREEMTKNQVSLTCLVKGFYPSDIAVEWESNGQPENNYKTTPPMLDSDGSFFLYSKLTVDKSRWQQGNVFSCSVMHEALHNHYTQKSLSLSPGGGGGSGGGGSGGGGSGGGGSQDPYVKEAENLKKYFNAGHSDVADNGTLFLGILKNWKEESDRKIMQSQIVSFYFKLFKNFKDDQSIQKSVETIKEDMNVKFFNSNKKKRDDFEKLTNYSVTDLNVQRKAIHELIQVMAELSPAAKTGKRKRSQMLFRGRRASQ
light: B3 light

CD40 EC50 (ng/mL), NFκB-SEAP reporter in HEK-Blue CD40L cells (human CD40): 65.8 ng/mL | IFNε EC50 (ng/mL), SEAP reporter in HEK-Blue hIFN-α/β cells [4]: 78.2 ng/mL
B4: IFA49 (antibody, human IgG2, kappa)
heavy: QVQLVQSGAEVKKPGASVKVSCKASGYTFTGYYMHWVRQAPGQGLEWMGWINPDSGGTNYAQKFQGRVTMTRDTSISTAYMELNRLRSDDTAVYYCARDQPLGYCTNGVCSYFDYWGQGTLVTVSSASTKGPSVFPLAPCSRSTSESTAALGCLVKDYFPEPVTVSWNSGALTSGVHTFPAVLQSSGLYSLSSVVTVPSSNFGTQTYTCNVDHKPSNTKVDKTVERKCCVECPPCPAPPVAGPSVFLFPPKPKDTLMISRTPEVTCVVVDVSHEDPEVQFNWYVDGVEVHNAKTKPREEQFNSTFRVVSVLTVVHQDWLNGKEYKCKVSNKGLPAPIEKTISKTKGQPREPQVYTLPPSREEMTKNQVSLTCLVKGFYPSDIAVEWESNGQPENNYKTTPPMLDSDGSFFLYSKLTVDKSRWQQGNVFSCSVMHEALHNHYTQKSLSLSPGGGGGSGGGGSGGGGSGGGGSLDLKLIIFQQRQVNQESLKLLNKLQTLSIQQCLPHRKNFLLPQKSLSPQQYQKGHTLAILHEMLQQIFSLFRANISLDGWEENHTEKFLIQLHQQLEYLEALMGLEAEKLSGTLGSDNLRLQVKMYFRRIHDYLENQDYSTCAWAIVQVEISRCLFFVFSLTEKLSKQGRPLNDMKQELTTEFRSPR
light: B3 light
